Here are results for one molecule from US20090041744A1 (published 2009).

For assay [1], the target named is T1, FVIIa 407C-PEG20k-FVIIa 407C (human, UniProt P08709 61-212; P08709 213-466, N-glycosylated Asn322; Cys407 of the two protomers cross-linked through maleimide-PEG20k-maleimide; 10 gamma-carboxylated glutamic acid (GLA) residues; O-glycosylated Ser52 and Ser60; N-glycosylated …).
T1 construct: range 1-152;range 153-406
T1 sequence (light): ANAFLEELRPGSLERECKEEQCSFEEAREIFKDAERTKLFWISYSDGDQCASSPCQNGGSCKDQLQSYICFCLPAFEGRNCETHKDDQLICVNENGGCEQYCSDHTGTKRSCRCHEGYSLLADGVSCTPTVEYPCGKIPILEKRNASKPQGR
T1 sequence (heavy): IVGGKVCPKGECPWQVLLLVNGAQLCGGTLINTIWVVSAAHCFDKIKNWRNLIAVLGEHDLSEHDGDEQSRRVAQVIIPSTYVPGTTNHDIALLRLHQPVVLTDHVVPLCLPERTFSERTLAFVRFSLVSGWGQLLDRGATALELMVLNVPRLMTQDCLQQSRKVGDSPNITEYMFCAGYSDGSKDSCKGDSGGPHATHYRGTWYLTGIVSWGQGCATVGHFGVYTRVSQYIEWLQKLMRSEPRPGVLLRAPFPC
The experiment in a line: SPR (Biacore 3000), biotinylated sTF E219C on SA chip, FVIIa dimer as analyte, 5 mM CaCl2, 1:1 Langmuir fit. On the procedure: (§1) Surface plasmon resonance (SPR) analysis of the binding of FVIIa 407C, FVIIa 407C-PEG3.4 k-FVIIa 407C, and FVIIa 407C-PEG20k-FVIIa 407C to immobilized soluble tissue factor—Binding of FVIIa 407C and PEGylated variants to immobilized soluble tissue factor was analyzed by surface plasmon resonance analysis on a Biacore 3000 instrument (Biacore AB, Uppsala, Sweden). Prior to immobilization, sTF E219C was biotinylated at its free cysteine by reacting the protein with 2 mM biotin-PEO-iodoacetamide at pH 7.0 for 20 min. Excess reagent was subsequently removed by gelfiltration on a NAP™5 column (Amersham Biosciences AB, Uppsala, Sweden) equilibrated in HBS-P buffer (10 mM HEPES, 150 mM NaCl, 0.005% P20; Biacore AB, Uppsala, Sweden) containing 5 mM CaCl₂. Biotinylated sTF E19C was immobilized at a density of 2.2 fmol/mm² (˜50 RU) in flow cell 2 of a SA sensor chip (Biacore AB, Uppsala, Sweden). Kinetic analysis was performed at a flow rate of 30 μl/min in running buffer (HBS-P buffer containing 5 mM CaCl₂) using the untreated flow cell 1 for automatic in-line reference subtraction. Serial dilutions of protein from 100 nM to approx. 5 nM were analyzed. Following 3 min equilibration of the flow cells in running buffer, 90 μl protein sample was injected using the KINJECT command. The dissociation phase lasted 9 min and regeneration was performed with a 3-min pulse of 20 mM EDTA in HBS-P buffer. SPR data were fitted to a 1:1 Langmuir binding model using BIAevaluation 4.1 software (Biacore AB, Uppsala, Sweden).
A general note: In SPR one partner is held on a chip, and binding of the other changes the refractive index at the surface.

The target in assay [2] is T2, FVIIa 407C-PEG3.4k-FVIIa 407C (human, UniProt P08709 61-212; P08709 213-466, N-glycosylated Asn322; Cys407 of the two protomers cross-linked through maleimide-PEG3.4k-maleimide; 10 gamma-carboxylated glutamic acid (GLA) residues; O-glycosylated Ser52 and Ser60; N-glycosylated …).
T2 construct: range 1-152;range 153-406
T2 sequence (light): T1 sequence (light)
T2 sequence (heavy): T1 sequence (heavy)
The description is as above. The procedure:
as §1

Assay [3] concerns the target T1, FVIIa 407C-PEG20k-FVIIa 407C. The experiment in a line: SPR (Biacore 3000), biotinylated sTF E219C on SA chip, FVIIa dimer as analyte; KD calculated from kon and koff. The procedure:
as §1, with “SPR data were fitted to a 1:1 Langmuir binding model using BIAevaluation 4.1 software (Biacore AB, Uppsala, Sweden).” left out

Assay [4] addresses T2, FVIIa 407C-PEG3.4k-FVIIa 407C. Described as above. On the procedure:
as §1, with “SPR data were fitted to a 1:1 Langmuir binding model using BIAevaluation 4.1 software (Biacore AB, Uppsala, Sweden).” left out

For assay [5], the target named is T3, FVIIa 407C (human, UniProt P08709 61-212; P08709 213-466, N-glycosylated Asn322; engineered Cys407 is largely in mixed disulfides with glutathione, cysteine and homocysteine in the untreated preparation; whether the SPR sample was selectively reduced is not …).
T3 construct: range 1-152;range 153-406; Recombinant, expressed in BHK cells; DNA construct as described in WO 02/077218 A1; Light and heavy chain are joined by a disulfide bond; also called Factor VIIa 407C; FVII 407C
T3 sequence (light): T1 sequence (light)
T3 sequence (heavy): T1 sequence (heavy)
The experiment in a line: SPR (Biacore 3000), biotinylated sTF E219C on SA chip, FVIIa as analyte, 5 mM CaCl2, 1:1 Langmuir fit. The procedure:
as §1, with “SPR data were fitted to a 1:1 Langmuir binding model using BIAevaluation 4.1 software (Biacore AB, Uppsala, Sweden).” left out

In assay [6] the target is T3, FVIIa 407C. The experiment in a line: SPR (Biacore 3000), biotinylated sTF E219C on SA chip, FVIIa as analyte; KD calculated from kon and koff. The procedure:
as §1, with “SPR data were fitted to a 1:1 Langmuir binding model using BIAevaluation 4.1 software (Biacore AB, Uppsala, Sweden).” left out

B1: sTF (1-219) Glu219→Cys (E219C), biotinylated (receptor)
chain: SGTTNTVAAYNLTWKSTNFKTILEWEPKPVNQVYTVQISTKSGDWKSKCFYTTDTECDLTDEIVKDVKQTYLARVFSYPAGNVESTGSAGEPLYENSPEFTPYLETNLGQPTIQSFEQVGTKVNVTVEDERTLVRRNNTFLSLRDVFGKDLIYTLYYWKSSSSGKKTAKTNTNEFLIDVDKGENYCFSVQAVIPSRTVNRKSTDSPVECMGQEKGEFRC
modifications: Cys219 alkylated with biotin-PEO-iodoacetamide (biotinylated at its free cysteine) ; chain 1 pos 219: Cys alkylated with biotin-PEO-iodoacetamide (biotinylated at its free cysteine), written C. It was captured through this biotin on a streptavidin (SA) sensor chip.
notes: Immobilized on a streptavidin (SA) sensor chip at 2.2 fmol/mm^2 (~50 RU); also called sTF E219C; biotinylated sTF E19C
Consider B1, for which the values for the off-rate (koff) (in assay [1]; in assay [2]; with FVIIa 407C [5]) were 0.00016 s⁻¹, 0.00015 s⁻¹ and 0.0015 s⁻¹, respectively. Further, the kon (as a rule, the second-order rate constant of association) in assay [1] was 310000 M⁻¹ s⁻¹; in assay [2], 350000 M⁻¹ s⁻¹; in the assay with FVIIa 407C [5], 280000 M⁻¹ s⁻¹. For the same molecule, the Kd (usually the free concentration of one partner at which half of the binding sites on the other are occupied at equilibrium, for simple one-to-one binding) in assay [3] was 0.5 nM; in assay [4], 0.4 nM; with FVIIa 407C [6], 5.5 nM.
